Measured values: US20260207767A1 (ANAVEON, published 2026)

Columns and labels:
[1] = biological target: T1, recombinant human IL-2 (human, UniProt P60568 21-153); assay: ELISA, coated IL-2
T1 construct: bought (BLI: Acro Biosystems IL2-H4113); also called rhIL-2; hIL-2
Method: (§1) Binding to IL-2 was first tested by ELISA using a serial dilution of antibodies on coated IL-2. Recombinant human IL-2 was coated on Maxisorp ELISA plates (Invitrogen, 44-2404-21) at 5 μg/ml, 4° C. overnight. […] The antibodies were detected with anti-human IgG-Peroxidase (Sigma, A0170). After addition and blockade of the chemiluminescent substrate, absorption was read (A₄₅₀-A₅₇₀ at plate reader, Spectramax 03). EC₅₀ values were obtained by plotting Absorbance vs. log(Concentration) and sigmoidal 4-PL fitting using GraphPad Prism (Table 1). […] Antibodies were immobilized on amine reactive (2nd Generation) sensors (ForteBio, 18-5092). Association (600s) and dissociation (900s) of a dilution series of recombinant IL-2 (Acro Biosystems, IL2-H4113) were measured on the antibody-coated biosensors on an Octet-System (Octet RED, ForteBio). KD values were obtained by fitting the kinetics data with the ForteBio Data Analysis Software (8.2).

[2] = biological target: T1, recombinant human IL-2; assay: BLI, antibody immobilized
Method: as §1

[3] = biological target: T2, CD122/CD132 complex (His-tagged, Acro Biosystem ILG-H5283) (UniProt P14784 27-239; P31785 23-254, limits assumed); assay: SPR, CD122/CD132 captured on NTA chip
T2 construct: bought; also called dimeric IL-2 receptor
T2 sequence (looked up) 1: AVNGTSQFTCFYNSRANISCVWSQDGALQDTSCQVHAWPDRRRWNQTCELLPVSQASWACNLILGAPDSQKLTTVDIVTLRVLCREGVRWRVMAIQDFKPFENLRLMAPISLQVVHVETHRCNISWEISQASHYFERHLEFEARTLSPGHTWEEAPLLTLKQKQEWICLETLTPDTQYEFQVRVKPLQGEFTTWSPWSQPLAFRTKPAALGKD
T2 sequence (looked up) 2: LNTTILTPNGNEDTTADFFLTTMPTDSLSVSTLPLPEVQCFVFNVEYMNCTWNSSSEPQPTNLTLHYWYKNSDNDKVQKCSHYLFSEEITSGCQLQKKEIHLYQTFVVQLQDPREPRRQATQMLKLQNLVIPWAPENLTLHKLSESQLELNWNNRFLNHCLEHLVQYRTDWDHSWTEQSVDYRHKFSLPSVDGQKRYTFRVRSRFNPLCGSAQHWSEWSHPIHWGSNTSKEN
Text: Binding to the CD122/CD132 complex (His-tagged, Acro Biosystem, Cat #ILG-H5283) of one representative anti-IL-2 antibody/IL-2 fusion (QTY065) was additionally assessed by SPR (BIAcore 3000, v4.1.2; GE Healthcare) and compared to Proleukin. CD122/CD132 was captured on an NTA sensor chip (GE Healthcare). Proleukin or QTY065 Fab were used as analytes.

[4] = biological target: T3, hPD-1 (ECD-His, produced in house) (human, UniProt Q15116 25-170); assay: binding ELISA
T3 construct: extracellular domain; also called coated hPD-1
Method: 60 nM of hPD-1 (ECD-His, produced in house) was coated on a Maxisorp plate (Nunc) overnight at 4° C. and blocked with 5% BSA in PBS. […] Absorbance signal after adding TMB was read with a plate reader (Spectramax ID3) at 450 nm. EC50 values were determined by blotting absorbance against concentration (Graphpad Prism, sigmoidal curve fit, 4 PL, X-axis is log).

[5] = biological target: T4, IL-2R CD122-CD132 on Jurkat-PD1+CD122+ cells (UniProt P14784 27-551; P31785 23-369); assay: cell-based or functional assay
T4 sequence (looked up) 1: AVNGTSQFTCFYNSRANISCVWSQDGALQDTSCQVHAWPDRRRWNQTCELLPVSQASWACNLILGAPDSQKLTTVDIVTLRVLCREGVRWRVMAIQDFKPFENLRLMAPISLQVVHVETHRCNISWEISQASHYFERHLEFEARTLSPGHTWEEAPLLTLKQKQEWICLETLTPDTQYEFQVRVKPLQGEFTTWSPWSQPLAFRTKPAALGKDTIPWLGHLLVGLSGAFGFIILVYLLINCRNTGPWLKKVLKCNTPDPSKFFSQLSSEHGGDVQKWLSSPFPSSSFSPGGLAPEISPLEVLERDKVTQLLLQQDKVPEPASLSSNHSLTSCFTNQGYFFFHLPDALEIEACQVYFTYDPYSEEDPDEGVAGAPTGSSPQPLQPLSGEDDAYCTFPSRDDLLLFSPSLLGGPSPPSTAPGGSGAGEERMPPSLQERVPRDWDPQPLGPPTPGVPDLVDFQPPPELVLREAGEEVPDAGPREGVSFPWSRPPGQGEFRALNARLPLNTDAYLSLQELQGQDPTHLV
T4 sequence (looked up) 2: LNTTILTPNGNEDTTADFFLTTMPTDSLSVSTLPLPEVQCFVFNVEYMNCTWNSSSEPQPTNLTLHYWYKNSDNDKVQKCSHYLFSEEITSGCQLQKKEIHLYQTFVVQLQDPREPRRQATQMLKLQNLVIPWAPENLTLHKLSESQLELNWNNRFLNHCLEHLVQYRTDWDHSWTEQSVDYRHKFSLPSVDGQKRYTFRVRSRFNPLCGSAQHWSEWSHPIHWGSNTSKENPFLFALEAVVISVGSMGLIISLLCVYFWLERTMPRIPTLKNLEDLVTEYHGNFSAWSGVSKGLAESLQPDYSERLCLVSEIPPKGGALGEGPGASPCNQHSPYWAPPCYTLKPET

[6] = biological target: T1, recombinant human IL-2; assay: BLI, antibody immobilized; BLI: antibody immobilized on amine reactive sensors, rhIL-2 in solution as a dilution series
Method: as §1

T1 sequence (P60568 21-153 limits assumed): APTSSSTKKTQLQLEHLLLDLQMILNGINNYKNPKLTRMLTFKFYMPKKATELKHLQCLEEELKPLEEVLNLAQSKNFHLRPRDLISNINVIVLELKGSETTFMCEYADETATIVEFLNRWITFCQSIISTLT
T3 sequence (Q15116 25-170): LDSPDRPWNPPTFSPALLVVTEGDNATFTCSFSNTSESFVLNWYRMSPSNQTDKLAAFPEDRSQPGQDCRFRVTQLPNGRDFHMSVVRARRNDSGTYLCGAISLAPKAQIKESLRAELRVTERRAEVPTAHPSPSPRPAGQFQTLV

B1: Antibody A (antibody, human IgG1, kappa, N297A, V domains shown)
VH: EVQLVQSGAEVKKPGESLKISCKGSGYAFTNYLIEWVRQMPGKGLEWMGVINPGSGGTNYNEKFKGQVTISADKSISTAYLQWSSLKASDTAMYYCARWRGEGYYAYFDVWGQGTTVTVSS
VL: AIRLTQSPSSFSASTGDRVTITCKASQSVDYQGDSYMNWYQQKPGKAPKLLIYAASNLESGVPSRFSGSGSGTDFTLTISSLQSEDFATYYCQQSNEDPYTFGGGTKVEIKR
notes: humanized from antibody NARA1
With B1 the EC50 [1] was 0.37 nM and the Kd [2] was 2.1 nM.

B2: QTY065 Fab (Fab)
heavy: B1 VH
light: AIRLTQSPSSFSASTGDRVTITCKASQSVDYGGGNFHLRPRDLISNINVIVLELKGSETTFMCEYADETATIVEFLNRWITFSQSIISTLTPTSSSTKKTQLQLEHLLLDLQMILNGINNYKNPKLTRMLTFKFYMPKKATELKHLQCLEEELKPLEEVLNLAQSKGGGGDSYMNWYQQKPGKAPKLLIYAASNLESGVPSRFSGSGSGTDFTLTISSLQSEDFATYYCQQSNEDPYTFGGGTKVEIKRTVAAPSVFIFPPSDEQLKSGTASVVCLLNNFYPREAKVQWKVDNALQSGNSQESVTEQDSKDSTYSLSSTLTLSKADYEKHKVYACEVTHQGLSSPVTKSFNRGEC
notes: also called Fab fragment of QTY065; not shown: CH1
Binder B2 has a Kd [3] of 0.32 nM.

B3: PXU588 (bispecific antibody, human IgG1, kappa, L234A L235A)
heavy 1: EVQLLESGGGLVQPGGSLRLSCAASGFTFSINAMTWVRQAPGKGLEWVSTISGSGFSTYYADSLKGRFTISRDNSKNTLYLQMNSLRAEDTAVYYCAKEVYGDYWGQGTLVTVSSASVAAPSVFIFPPSDEQLKSGTASVVCLLNNFYPREAKVQWKVDNALQSGNSQESVTEQDSKDSTYSLSSTLTLSKADYEKHKVYACEVTHQGLSSPVTKSFNRGECDKTHTCPPCPAPEAAGGPSVFLFPPKPKDTLMISRTPEVTCVVVDVSHEDPEVKFNWYVDGVEVHNAKTKPREEQYNSTYRVVSVLTVLHQDWLNGKEYKCKVSNKALAAPIEKTISKAKGQPREPQVYTLPPSREEMTKNQVSLTCLVKGFYPSDIAVEWESNGQPENNYKTTPPVLDSDGSFFLTSKLTVDKSRWQQGNVFSCSVMHEALHNHYTQKSLSLSPGK
light 1: RSVLTQPPSASGTPGQRVSISCSGASSNIGSSSVFWYQQLPGTAPKLLIYSNNQRPSGVPDRFSGSKSGTSASLAISGLRSEDEADYYCAAWDDSLSIWVFGGGTKLTVLSSASTKGPSVFPLAPSSKSTSGGTAALGCLVKDYFPEPVTVSWNSGALTSGVHTFPAVLQSSGLYSLSSVVTVPSSSLGTQTYICNVNHKPSNTKVDKRVEPKSC
heavy 2: EVQLVQSGAEVKKPGESLKISCKGSGYAFTNYLIEWVRQMPGKGLEWMGVINPGSGGTNYNEKFKGQVTISADKSISTAYLQWSSLKASDTAMYYCARWRGEGYYAYFDVWGQGTTVTVSSASTKGPSVFPLAPSSKSTSGGTAALGCLVKDYFPEPVTVSWNSGALTSGVHTFPAVLQSSGLYSLSSVVTVPSSSLGTQTYICNVNHKPSNTKVDKRVEPKSCDKTHTCPPCPAPEAAGGPSVFLFPPKPKDTLMISRTPEVTCVVVDVSHEDPEVKFNWYVDGVEVHNAKTKPREEQYNSTYRVVSVLTVLHQDWLNGKEYKCKVSNKALAAPIEKTISKAKGQPREPQVYTLPPSREEMTKNQVSLYCLVKGFYPSDIAVEWESNGQPENNYKTTPPVLDSDGSFFLYSKLTVDKSRWQQGNVFSCSVMHEALHNHYTQKSLSLSPGK
light 2: not shown
notes: also called IgG CrossMab 21A08A p2 x QTY065
In the case of B3, the binding result [4] is reported as “no binding” and the “EC50 value for pSTAT5 induction, Jurkat-PD-1+CD122+ cells” value [5] is reported as 5.37 nM.

B4: Antibody B (antibody, human IgG1, kappa, V domains shown)
VH: QVQLVESGGGVVQPGRSLRLSCAASGYTFSSYLIEWVRQAPGKGLEWVAVINPGSGGTNYADSVKGRFTISADKSKNTAYLQMNSLRAEDTAVYYCARWRGDGYYAYFDVWGQGTTVTVSS
VL: EIVLTQSPATLSVSPGERATLSCRASQSVSYDGDSYMNWYQQKPGQAPRLLIYAASNLASGIPARFSGSGSGTEFTLTISSLQSEDAAVYYCQQSNEDPYTFGGGTKVEIKR
B4 showed a Kd [6] of 270 nM.
